Laboratory results published in patent US20050064411.

Assays:
[1] = target: T1, FLAG-AICD, P05067
T1 chain: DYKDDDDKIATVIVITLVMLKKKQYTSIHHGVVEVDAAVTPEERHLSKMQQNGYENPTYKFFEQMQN

[2] = target: SOD1 mutants

B1: NEDL-1 protein (protein)
chain: MASPSRNSQSRRRCKEPLRYSYNPDQFHNMDLRGGPHDGVTIPRSTSDTDLVTSDSRSTLMVSSSYYSIGHSQDLVIHWDIKEEVDAGDWIGMYLIDEVLSENFLDYKNRGVNGSHRGQIIWKIDASSYFVEPETKICFKYYHGVSGALRATTPSVTVKNSAAPIFKSIGADETVQGQGSRRLISFSLSDFQAMGLKKGMFFNPDPYLKISIQPGKHSIFPALPHHGQERRSKIIGNTVNPIWQAEQFSFVSLPTDVLEIEVKDKFAKSRPIIKRFLGKLSMPVQRLLERHAIGDRVVSYTLGRRLPTDHVSGQLQFRFEITSSIHPDDEEISLSTEPESAQIQDSPMNNLMESGSGEPRSEAPESSESWKPEQLGEGSVPDRPGNQSIELSRPAEEAAVITEAGDQGMVSVGPEGAGELLAQVQKDIQPAPSAEELAEQLDLGEEASALLLEDGEAPASTKEEPLEEEATTQSRAGREEEEKEQEEEGDVSTLEQGEGRLQLRASVKRKSRPCSLPVSELETVIASACGDPETPRTHYIRIHTLLHSMPSAQGGSAAEEEDGAEEESTLKDSSEKDGLSEVDTVAADPSALEEDREEPEGATPGTAHPGHSGGHFPSLANGAAQDGDTHPSTGSESDSSPRQGGDHSCEGCDASCCSPSCYSSSCYSTSCYSSSCYSASCYSPSCYNGNRFASHTRFSSVDSAKISESTVFSSQDDEEEENSAFESVPDSMQSPELDPESTNGAGPWQDELAAPSGHVERSPEGLESPVAGPSNRREGECPILHNSQPVSQLPSLRPEHHHYPTIDEPLPPNWEARIDSHGRVFYVDHVNRTTTWQRPTAAATPDGMRRSGSIQQMEQLNRRYQNIQRTIATERSEEDSGSQSCEQAPAGGGGGGGSDSEAESSQSSLDLRREGSLSPVNSQKITLLLQSPAVKFITNPEFFTVLHANYSAYRVFTSSTCLKHMILKVRRDARNFERYQHNRDLVNFINMFADTRLELPRGWEIKTDQQGKSFFVDHNSRATTFIDPRIPLQNGRLPNHLTHRQHLQRLRSYSAGEASEVSRNRGASLLARPGHSLVAAIRSQHQHESLPLAYNDKIVAFLRQPNIFEMLQERQPSLARNHTLREKIHYIRTEGNHGLEKLSCDADLVILLSLFEEEIMSYVPLQAAFHPGYSFSPRCSPCSSPQNSPGLQRASARAPSPYRRDFEAKLRNFYRKLEAKGFGQGPGKIKLIIRRDHLLEGTFNQVMAYSRKELQRNKLYVTFVGEEGLDYSGPSREFFFLLSQELFNPYYGLFEYSANDTYTVQISPMSAFVENHLEWFRFSGRILGLALIHQYLLDAFFTRPFYKALLRLPCDLSDLEYLDEEFHQSLQWMKDNNITDILDLTFTVNEEVFGQVTERELKSGGANTQVTEKNKKEYIERMVKWRVERGVVQQTEALVRGFYEVVDSRLVSVFDARELELVIAGTAEIDLNDWRNNTEYRGGYHDGHLVIRWFWAAVERFNNEQRLRLLQFVTGTSSVPYEGFAALRGSNGLRRFCIEKWGKITSLPRAHTCFNRLDLPPYPSYSMLYEKLLTAVEETSTFGLE
ubiquitination (bands increasing by about 9 kD detected with anti-ubiquitin antibody) [1]: It is understood that ACID alone is subjected to ubiquitination by NEDL-1.
ubiquitination (immunoprecipitation with FLAG, blotting with anti-ubiquitin antibody, FIG. 13) [2]: the degree of ubiquitination drastically increases in the presence of NEDL-1
